{
  "source": "paper PMC5885637",
  "about": "(Journal of molecular biology, 2014)",
  "binders": {"B1": {"name": "ICSM18-scFv (scFv, V domains shown)", "VH": "EVQLQQSGPELVKPGSSVKISCKASRNTFTDYNLDWVKQSHGKTLEWIGNVYPNNGVTGYNQKFRGKATLTVDKSSSTAYMELHSLTSEDSAVYYCALYYYDVSYWGQGTLVTVSS", "VL": "QIVLTQSPAIMSASPGEKVTMTCSASSSVSYMHWYQQKSGTSPKRWIYDTSKLASGVPARFSGSGSGTSYSLTISSMEAEDAATYFCHQWRSNPYTFGGGTKLEIK"}},
  "target": "wild-type mouse PrP (residues 23-231) displayed on the yeast surface (Mus musculus, UniProt P04925)",
  "sequence (P04925 23-231)": "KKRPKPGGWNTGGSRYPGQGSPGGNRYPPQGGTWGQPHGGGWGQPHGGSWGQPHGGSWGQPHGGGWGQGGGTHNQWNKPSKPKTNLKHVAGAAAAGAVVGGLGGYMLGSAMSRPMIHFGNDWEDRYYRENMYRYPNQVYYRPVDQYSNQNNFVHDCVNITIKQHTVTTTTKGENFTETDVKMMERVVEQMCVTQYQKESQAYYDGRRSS",
  "experiment": "flow cytometry on cells",
  "data": [
    {"binder": "B1", "values": [
      {"measurement": "Kd", "value": 153, "unit": "nM"}
    ]}
  ]
}
